Measurements from patent US20240299449A1 (University of California, published 2024).

T1: recombinant fusion protein comprised of the C-terminal extracellular domain of CD72 (aa 117-359) fused to a … (human, UniProt P21854 117-359, biotinylated (on the Fc domain; site not stated))
T1 chain: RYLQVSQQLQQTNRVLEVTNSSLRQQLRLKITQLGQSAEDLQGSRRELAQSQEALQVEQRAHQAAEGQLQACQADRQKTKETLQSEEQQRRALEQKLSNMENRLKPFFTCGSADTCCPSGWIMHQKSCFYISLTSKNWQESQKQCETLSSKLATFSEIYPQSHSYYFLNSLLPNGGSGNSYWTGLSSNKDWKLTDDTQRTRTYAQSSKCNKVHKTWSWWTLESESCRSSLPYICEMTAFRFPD

T2: recombinant fusion protein comprised of the C-terminal extracellular domain of CD72 (aa 117-359) fused to a … (human, UniProt P21854 117-359, biotinylated (on the Fc domain; site not stated))
T2 construct: range 117-359; Expressed in mammalian cells; CD72 is a type II protein, so the Fc may be N-terminal; also called CD72-Fc; CD72-ECD-Fc; not shown: human Fc domain
T2 sequence (looked up): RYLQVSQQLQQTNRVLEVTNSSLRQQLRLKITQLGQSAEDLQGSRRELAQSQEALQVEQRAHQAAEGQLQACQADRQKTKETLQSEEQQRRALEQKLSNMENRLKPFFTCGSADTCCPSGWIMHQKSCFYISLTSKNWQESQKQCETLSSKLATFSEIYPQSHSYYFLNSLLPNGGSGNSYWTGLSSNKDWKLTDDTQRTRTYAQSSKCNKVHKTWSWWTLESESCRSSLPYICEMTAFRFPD


Tests used:
[1] = target: T1, recombinant fusion protein comprised of …; assay: on-yeast binding (yeast display titration)
[2] = target: T2, recombinant fusion protein comprised of …; assay: on-yeast affinity measurement, flow cytometry, titration of CD72-Fc
Source text: FIG. 4a-e: Isolation of high-affinity CD72 nanobodies with yeast display (a) Schematic of workflow for in vitro anti-CD72 nanobody selection using yeast display. (b) Structure models of the recombinant Fc-fusion proteins used to perform yeast display selections. The Fc protein on the left was used to negatively select potential off-target nanobodies while the CD72-Fc protein (CD72 extracellular domain fused to a human Fc domain) was used to perform positive selection steps to isolate CD72-specific nanobodies (c) Schematic displaying the nanobody yeast display selection strategy for each MACS and FACS selection round to enrich for CD72-specific nanobody binders. Two rounds of MACS followed by four rounds of FACS with decreasing concentration of CD72 antigen produced high affinity anti-CD72 nanobodies. (d) On-yeast binding of recombinant CD72-Fc fusion protein for CD72-selected nanobodies Nb.B5 (nanobody sequence SEQ ID NO:2) and Nb.C2 (nanobody sequence SEQ ID NO:1) expressed on yeast to determine estimated binding affinities. Kd determined by curve fitting using non-linear least squares regression. (e) Flow cytometry plots of yeast clone Nb.C2 binding to 10 nM CD72-ECD-Fc protein (left) or 10 nM Fc protein (right). […]

| Kd [1] [nM] | binding result [2] | Binder |
| --- | --- | --- |
| 1.5 | binds | Nb.C2 (VHH, display was detected with anti-HA-FITC; also called yeast clone Nb.C2) VHH: QVQLQESGGGLVQAGGSLRLSCAASGTIFDWYSMGWYRQAPGKERELVAGIDTGANTYYADSVKGRFTISRDNAKNTVYLQMNSLKPEDTAVYYCAAHDDGDPWHVYWGQGTQVTVSS |
| 1 | binds | Nb.B5 (VHH) VHH: QVQLQESGGGLVQAGGSLRLSCAASGTIFPVDYMGWYRQAPGKERELVAGINYGSNTYYADSVKGRFTISRDNAKNTVYLQMNSLKPEDTAVYYCAAWQPEGYAVDFYHPYWGQGTQVTVSS |
